The source of these data is paper PMC5416766.

For one series, the target named is CTF18-RFC;p261Nexo- (human;human, UniProt Q8WVB6;Q9BVC3;P0CG13;P35250;P40938;P35249;P40937;Q07864 …, |D275A). Nature of the series: photo-crosslinking.
The target of the next series is CTF18-RFC (human, UniProt Q8WVB6;Q9BVC3;P0CG13;P35250;P40938;P35249;P40937 …). Nature of the series: EMSA. For orientation: Mobility shift assays separate free from complexed probe on a gel.
For the next series, the target named is CTF18-RFC;PCNA (human;human, UniProt Q8WVB6;Q9BVC3;P0CG13;P35250;P40938;P35249;P40937;P12004 …, |). Nature of the series: EMSA.

B1: APB-Junction (dsDNA)
DNA 1: TGAGGTTCAGCAAGGTGATGCTTTAGATTTTTC
DNA 2: AGGCGGTCAGTATTAACACCGCCTGCAACAGTGCCACGCTGAGAGCCAGCAGCAAATGAAAAATCTAAAGCATCACCTTGCTGAACCTCA
modifications: APB on phosphorothioate dCMP at primer nt 33
On to B1, for which the binding signal in the series with CTF18-RFC;p261Nexo- was ~3 fold p261Nexo- crosslink vs alone (CTF18 5-fold).

B2: dd-Junction (dsDNA)
DNA 1: TGAGGTTCAGCAAGGTGATGCTTTAGATTTTTCA
DNA 2: B1 DNA 2
modifications: 3' ddAMP (primer nt 34); APB on S-dCMP at primer nt 33
With B2, the binding result with CTF18-RFC and in the series with CTF18-RFC;PCNA was “no binding” in each case.
